Test results as given in patent US5726154A, “Stabilization and oral delivery of calcitonin” (University of Utah Research Foundation, priority 1996, dated 1998).

Assays:
[1] = in water at room temperature; cited from earlier work
[2] = 5 mg/ml hCT in 0.0001%-1.0% acetic acid; could not be duplicated by the applicant; cited from earlier work
[3] = Reversed-phase HPLC analysis of unaggregated hCT in formulations; assay type: physicochemical; conditions: 0.01% acetic acid containing 1.0% SDS; 8 months of storage at ambient temperature
Description: Samples (1-2 ml) containing 0.2-10 mg/ml of hCT in aqueous formulations were prepared and then maintained in 4 ml borosilicate vials at ambient temperature or at 4° C. The samples were checked periodically for the presence of a precipitate, a gel, or turbidity, which are indicative of fibrillation. In cases of formulations in which the hCT was very unstable, changes in turbidity could be followed over time by spectrophotometry at 340 nm. T. Arvinte et al., The structure and mechanism of formation of human calcitonin fibrils, 268 J. Biol. Chem. 6415-22 (1993), hereby incorporated by reference. In some cases, the concentration of unaggregated hCT was determined using reversed-phase HPLC (Waters modular system with Waters model 745 integrator, Bedford, Mass.) on a Vydac C4 column (4.6 mm×25 cm) equilibrated at a flow rate of 1 ml/min with 0.1% (v/v) trifluoroacetic acid containing 30% (v/v) acetonitrile. Five minutes after injection of a 100 μl sample, a linear gradient of 0.67% acetonitrile/min was applied. Absorbance (at 220 nm) of the eluent was recorded and processed to quantify the amount of hCT injected.
HPLC analysis of hCT in 0.01% acetic acid or in 0.01% acetic acid containing 1.0% SDS was performed to determine the state and concentration of unaggregated hCT in such formulations. […]

[4] = Stability of hCT upon storage in liquid formulations (precipitate, gel or turbidity indicative of fibrillation); assay type: physicochemical; conditions: bile salts (0.5-1.0%: taurocholate, deoxycholate, glycocholate), neutral or acidic pH
Description: As used herein, "stable," "stabilizing," and similar terms refer to inhibiting the precipitation, fibrillation, or gelation of human calcitonin molecules upon storage in a liquid medium at a temperature of about 4°-25° C. Human calcitonin is considered "stable" or "stabilized" in a selected liquid medium when no precipitation, fibrillation, or gellation is detected upon storage at a temperature of about 4°-25° C. for a period of at least about 6 months.
Since hCT is highly unstable in aqueous solutions of neutral or basic pH, acidic formulations were investigated to determine whether increased stability could be obtained. […]
Samples (1-2 ml) containing 0.2-10 mg/ml of hCT in aqueous formulations were prepared and then maintained in 4 ml borosilicate vials at ambient temperature or at 4° C. […] In some cases, the concentration of unaggregated hCT was determined using reversed-phase HPLC (Waters modular system with Waters model 745 integrator, Bedford, Mass.) on a Vydac C4 column (4.6 mm×25 cm) equilibrated at a flow rate of 1 ml/min with 0.1% (v/v) trifluoroacetic acid containing 30% (v/v) acetonitrile. […] Absorbance (at 220 nm) of the eluent was recorded and processed to quantify the amount of hCT injected. […]

Row | Molecule | Critical micelle concentration (CMC) [1] | Period of stable formulation reported by EP 490549 [2] | HPLC profiles and UV spectra after storage [3] | Time to gel formation [4]
1 | CCCCCCCCCCCCOS(=O)(=O)[O-].[Na+] [SDS, sodium dodecyl sulfate] | 0.24% |  |  | 
2 | Human calcitonin [hCT] |  | 8 months | not altered | ≤ 1 h
